From publication PMC2853123
Like-named read-outs stand apart in the source and are kept apart here.

Assays:
Experiment in all cases: EMSA
MBNL1 (GST-MBNL1 1-260) [1] = biological target: T1, MBNL1 (GST-MBNL1 1-260) (UniProt Q9NR56 1-260)
T1 sequence: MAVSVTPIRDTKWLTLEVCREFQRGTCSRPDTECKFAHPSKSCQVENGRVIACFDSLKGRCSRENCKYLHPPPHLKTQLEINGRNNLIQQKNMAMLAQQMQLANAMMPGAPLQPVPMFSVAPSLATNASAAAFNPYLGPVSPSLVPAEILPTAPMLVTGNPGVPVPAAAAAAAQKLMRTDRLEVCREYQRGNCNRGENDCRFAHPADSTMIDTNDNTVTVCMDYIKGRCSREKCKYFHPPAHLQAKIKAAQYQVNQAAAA

MBNL1 (GST-MBNL1 1-260) [2] = biological target: T1, MBNL1 (GST-MBNL1 1-260); remark: listed apart in the source
MBNL1 (GST-MBNL1 1-260) [3] = biological target: T1, MBNL1 (GST-MBNL1 1-260); remark: listed apart in the source
MBNL1 (GST-MBNL1 1-260) [4] = biological target: T1, MBNL1 (GST-MBNL1 1-260); remark: listed apart in the source
MBNL1 (GST-MBNL1 1-260) [5] = biological target: T1, MBNL1 (GST-MBNL1 1-260); remark: listed apart in the source

Binder	Kd (MBNL1 (GST-MBNL1 1-260) [1]) [nM]	other results
CCUGUCUCGCUUUUCCCCUCCGCUGCGGCCAC (ssRNA) [TNNT2 32mer]	20	–
TNNT2 81mer template (ssRNA) RNA: GGGAAUGGAUCCACAUCUACGAAUUCCCUGUCUCGCUUUUCCCCUCCGCUGCGGCCACAAGACUCGAUACGUGACGAACCU	30	–
CCUUUAUUGUGCAUGCUUAGUCUUGUUAUUCGUUGUAUAU (ssRNA) [MBNL1 site #2]	45	–
UGCCACUGCUGCUGCUGCGCUUCCAGUCAGGGUGGGCCGC (ssRNA) [ATP2A1]	15	–
GCCGAGGAGGUGGUGUGAUUGCUUUAGCGCCGUCAUUUUC (ssRNA) [GRIN1]	280	–
GCGGCGGGCAGCUGUGCUGGAGAGCAGAUGCUUCACCAAU (ssRNA) [INSR]	120	–
UGUUCCUCGCUUUUCGCCUCCGCUUCCGCCGC (ssRNA) [B07 32mer]	0.66	–
H01 CA1-2 (ssRNA) RNA: GGGAAUGGAUCCACAUCUACGAAUUCCCUCAUUUCAUAUUGCGCUGCAAUUCCUGUUCAAGACUCGAUACGUGACGAACCU	–	binding signal (MBNL1 (GST-MBNL1 1-260) [2]): 12 fold lower affinity than H01
F06 UCCA 81mer (ssRNA) RNA: GGGAAUGGAUCCACAUCUACGAAUUCCCGAUCCUCCAUAUGCCAUCCGCUGCAGUCACAAGACUCGAUACGUGACGAACCU	–	binding signal (MBNL1 (GST-MBNL1 1-260) [3]): 140 fold lower affinity than F06
CCGAUCCCGCUUAUGCCAUCCGCUGCAGUCAC (ssRNA) [F06 32mer]	–	binding result (MBNL1 (GST-MBNL1 1-260) [4]): binds
CUGCUUCUGCUUCUGCUUCUGCUUCUGCUUCUGCUU (ssRNA) [(CUGCUU)6 (SELEX motif 1)]	–	binding result (MBNL1 (GST-MBNL1 1-260) [5]): binds
CCUGCUUCGCUUCUGCAUUGUUCGGCCGGUUG (ssRNA) [A04 32mer]	180	–
